Reference: patent US20030143692A1, “Methods and compositions for modulating integrin-mediated cell-cell interactions” (priority 2000, published 2003)

Experiments:
[1] = system: ADAM 23 mediated adhesion of NB100 neuroblastoma cells; test: Inhibition of ADAM 23 mediated adhesion of NB100 cells; assay type: cell-based, human; settings: NB100 cells incubated with peptide (20 or 40 μg/ml) prior to seeding
Protocol: Cell adhesion assays were performed in accordance with procedures described by Luque et al. (FEBS Lett 1994 346:278-284). In these assays, 96-well immunoplates (MaxiSorp, Nunc, Denmark) were coated with 0.1 ml of PBS containing different amounts of BSA, glutathione S-transferase (GST), and ADAM 23/GST. After incubating 16 hours at 4° C., wells were blocked with DMEM containing 2.5% BSA, for 2 hours at 37° C. Then, NB100 neuroblastoma cells (approximately 50,000 cells per well) were added in Dulbecco's modified Eagle's medium (DMEM) supplemented with 1% BSA and incubated at 37° C. for 2 hours. For experiments directed to analyze the effect of divalent cations, the cells were washed three times in PBS, and resuspended in the same buffer supplemented either with 1 mM MgCl2, 50 μM MnCl2, 1 mM CaCl2, or 1 mM MgCl2 plus 5 mM EDTA. Non-bound cells were removed by rinsing the wells with serum-free medium, whereas bound cells were fixed with methanol and stained with Giemsa. Cells were counted per unit area with the aid of an inverted light microscope, using a 20× high powered objective and an ocular grid. […] In all cases, experimental treatments were performed in triplicate with a minimum of three areas counted per well.

[2] = system: NB100 human neuroblastoma cells; test: Cell adhesion assay on coated wells, NB100 cells; assay type: cell-based; settings: for cell adhesion to wells coated with the protein: bound cells stained and quantified
Protocol: Cell adhesion assays were performed in accordance with procedures described by Luque et al. (FEBS Lett 1994 346:278-284). In these assays, 96-well immunoplates (MaxiSorp, Nunc, Denmark) were coated with 0.1 ml of PBS containing different amounts of BSA, glutathione S-transferase (GST), and ADAM 23/GST. After incubating 16 hours at 4° C., wells were blocked with DMEM containing 2.5% BSA, for 2 hours at 37° C. Then, NB100 neuroblastoma cells (approximately 50,000 cells per well) were added in Dulbecco's modified Eagle's medium (DMEM) supplemented with 1% BSA and incubated at 37° C. for 2 hours. For experiments directed to analyze the effect of divalent cations, the cells were washed three times in PBS, and resuspended in the same buffer supplemented either with 1 mM MgCl2, 50 μM MnCl2, 1 mM CaCl2, or 1 mM MgCl2 plus 5 mM EDTA. Non-bound cells were removed by rinsing the wells with serum-free medium, whereas bound cells were fixed with methanol and stained with Giemsa. Cells were counted per unit area with the aid of an inverted light microscope, using a 20× high powered objective and an ocular grid. For inhibition studies cells were pretreated for 30 minutes before the addition to the coated wells of mAb LM 609 (used at 1:400 dilution of ascites) or synthetic peptides (20 or 40 μg/ml) corresponding to the disintegrin loop of ADAM 23 (AVNEDCDIT, peptide 330 (SEQ ID NO:1)) or a “scrambled” peptide (DCVTNIAE, peptide 331 (SEQ ID NO:4)). In all cases, experimental treatments were performed in triplicate with a minimum of three areas counted per well.

endothelial cells = test: Murine MATRIGEL plug angiogenesis model; assay type: in vivo, female athymic (BALB/c nu/nu) mice
Protocol: The angiogenic activity of ADAM 23 was evaluated in the murine MATRIGEL plug angiogenesis model. On day 0, ice-cold MATRIGEL (Becton-Dickinson, Bedford, Mass.) containing either vascular endothelial growth factor (VEGF, Pepro Tech, Inc., Rocky Hill, N.J.), basic fibroblast growth factor (bFGF, Pepro Tech, Inc., Rocky Hill, N.J.), […], saline buffer (PBS) or recombinant ADAM 23 disintegrin domain (dd) expressed as a GST fusion protein (GST-ADAM23dd) was implanted subcutaneously in female athymic (BALB/c nu/nu; Harlan, Indianapolis, Ind.) mice. The MATRIGEL polymerized immediately after implantation into mice forming a gel plug. On day 7, individual MATRIGEL plugs were harvested, fixed in 10% buffered formalin, embedded in paraffin, sectioned, and stained with hematoxylin-eosin. The number of endothelial cells present in each plug section was measured using a video imaging system (Image Pro-Plus, Empire Imaging, Princeton, N.J.). Fifty fields (at 20×) per plug section were randomly counted. Data are presented as “Average Number of Migrating Cells” and the p-value was determined using a two-tailed Student T-Test.

α5β1 = target: T1, α5β1 (Homo sapiens, UniProt P05556+P08648); test: Sepharose bead binding of purified integrin (SDS-PAGE / Western blot)
T1 construct: purchased Chemicon International Inc., Temecula, Calif
T1 sequence (P08648 42-894 limits assumed): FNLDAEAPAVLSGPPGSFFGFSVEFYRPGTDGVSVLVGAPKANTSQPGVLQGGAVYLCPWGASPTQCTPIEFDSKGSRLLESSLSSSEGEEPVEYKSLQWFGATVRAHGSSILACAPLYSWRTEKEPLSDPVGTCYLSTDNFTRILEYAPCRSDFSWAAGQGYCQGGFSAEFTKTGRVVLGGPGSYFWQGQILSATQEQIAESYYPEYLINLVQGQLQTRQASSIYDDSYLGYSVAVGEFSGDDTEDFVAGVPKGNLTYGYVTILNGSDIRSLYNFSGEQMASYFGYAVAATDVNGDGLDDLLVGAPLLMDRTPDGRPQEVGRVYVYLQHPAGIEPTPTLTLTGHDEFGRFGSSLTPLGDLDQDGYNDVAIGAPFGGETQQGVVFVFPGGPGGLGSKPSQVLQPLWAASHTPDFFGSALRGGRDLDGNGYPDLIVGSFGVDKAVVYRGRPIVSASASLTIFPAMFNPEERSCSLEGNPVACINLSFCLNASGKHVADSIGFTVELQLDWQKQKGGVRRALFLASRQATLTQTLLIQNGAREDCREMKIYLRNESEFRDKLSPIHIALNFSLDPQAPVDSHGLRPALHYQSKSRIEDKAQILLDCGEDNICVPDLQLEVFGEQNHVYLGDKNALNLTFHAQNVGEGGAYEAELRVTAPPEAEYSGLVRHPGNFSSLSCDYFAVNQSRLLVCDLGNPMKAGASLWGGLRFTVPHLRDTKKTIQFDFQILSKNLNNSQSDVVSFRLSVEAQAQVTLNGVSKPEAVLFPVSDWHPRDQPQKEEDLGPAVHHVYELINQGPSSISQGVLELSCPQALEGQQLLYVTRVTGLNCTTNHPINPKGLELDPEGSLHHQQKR
T1 sequence (P08648 895-1049 partner limits assumed): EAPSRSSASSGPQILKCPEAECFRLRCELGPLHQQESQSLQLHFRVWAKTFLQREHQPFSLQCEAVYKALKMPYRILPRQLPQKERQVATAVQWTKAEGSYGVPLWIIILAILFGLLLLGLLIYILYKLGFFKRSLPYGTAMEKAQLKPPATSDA
T1 sequence (P05556 21-798): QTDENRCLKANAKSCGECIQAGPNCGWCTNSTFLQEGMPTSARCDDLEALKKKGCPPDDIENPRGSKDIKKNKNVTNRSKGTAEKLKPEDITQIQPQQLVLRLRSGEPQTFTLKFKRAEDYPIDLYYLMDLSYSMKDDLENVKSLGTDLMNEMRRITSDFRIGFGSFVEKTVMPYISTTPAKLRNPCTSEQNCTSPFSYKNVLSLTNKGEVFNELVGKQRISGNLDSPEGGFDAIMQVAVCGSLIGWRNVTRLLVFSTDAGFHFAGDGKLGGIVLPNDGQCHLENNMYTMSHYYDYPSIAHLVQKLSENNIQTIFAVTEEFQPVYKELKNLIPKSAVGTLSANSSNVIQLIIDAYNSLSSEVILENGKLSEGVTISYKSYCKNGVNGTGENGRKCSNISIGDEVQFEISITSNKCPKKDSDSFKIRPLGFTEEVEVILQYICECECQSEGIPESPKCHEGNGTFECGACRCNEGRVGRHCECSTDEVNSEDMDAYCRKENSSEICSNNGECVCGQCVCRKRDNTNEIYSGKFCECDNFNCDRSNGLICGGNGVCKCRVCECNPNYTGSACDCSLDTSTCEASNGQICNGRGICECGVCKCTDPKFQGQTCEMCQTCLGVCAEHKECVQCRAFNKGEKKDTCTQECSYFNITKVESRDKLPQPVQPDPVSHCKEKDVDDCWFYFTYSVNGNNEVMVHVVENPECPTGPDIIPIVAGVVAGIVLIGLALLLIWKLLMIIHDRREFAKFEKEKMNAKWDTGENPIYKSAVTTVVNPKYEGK
Protocol: (§1) Purified integrins ([…] αvβ3, α1β1 or α5β1) (Chemicon International Inc., Temecula, Calif.) were incubated with Sepharose 4B beads containing 0.5 μg of disintegrin-GST, in a buffer containing 50 mM Tris-HCl, 200 mM NaCl and 0.2 mM MnCl2 (pH 7.4), for 4 hours at 37° C. After incubation, beads were washed six times with 200 μl of the same buffer to remove unbound protein. Beads were then resuspended in Laemmli buffer and after boiling, solubilized proteins were loaded in a 6% SDS-PAGE gel, and visualized by silver staining. Alternatively, samples were blotted to a nitrocellulose membrane and the presence of αv or β3 integrin subunits was detected using polyclonal antibodies raised against these subunits. Similarly, the putative presence of β1 integrin subunits was examined with the B3B11 monoclonal antibody (Chemicon International Inc.). Western-blots were visualized by enhanced chemiluminescence according to the manufacturer s instructions (ECL, Amersham).

αvβ3 integrin = target: T2, αvβ3 integrin (Homo sapiens, UniProt P05106+P06756); test: as above; settings: confirmed by Western blot
T2 construct: purchased Chemicon International Inc., Temecula, Calif
T2 sequence (P06756 31-889 limits assumed): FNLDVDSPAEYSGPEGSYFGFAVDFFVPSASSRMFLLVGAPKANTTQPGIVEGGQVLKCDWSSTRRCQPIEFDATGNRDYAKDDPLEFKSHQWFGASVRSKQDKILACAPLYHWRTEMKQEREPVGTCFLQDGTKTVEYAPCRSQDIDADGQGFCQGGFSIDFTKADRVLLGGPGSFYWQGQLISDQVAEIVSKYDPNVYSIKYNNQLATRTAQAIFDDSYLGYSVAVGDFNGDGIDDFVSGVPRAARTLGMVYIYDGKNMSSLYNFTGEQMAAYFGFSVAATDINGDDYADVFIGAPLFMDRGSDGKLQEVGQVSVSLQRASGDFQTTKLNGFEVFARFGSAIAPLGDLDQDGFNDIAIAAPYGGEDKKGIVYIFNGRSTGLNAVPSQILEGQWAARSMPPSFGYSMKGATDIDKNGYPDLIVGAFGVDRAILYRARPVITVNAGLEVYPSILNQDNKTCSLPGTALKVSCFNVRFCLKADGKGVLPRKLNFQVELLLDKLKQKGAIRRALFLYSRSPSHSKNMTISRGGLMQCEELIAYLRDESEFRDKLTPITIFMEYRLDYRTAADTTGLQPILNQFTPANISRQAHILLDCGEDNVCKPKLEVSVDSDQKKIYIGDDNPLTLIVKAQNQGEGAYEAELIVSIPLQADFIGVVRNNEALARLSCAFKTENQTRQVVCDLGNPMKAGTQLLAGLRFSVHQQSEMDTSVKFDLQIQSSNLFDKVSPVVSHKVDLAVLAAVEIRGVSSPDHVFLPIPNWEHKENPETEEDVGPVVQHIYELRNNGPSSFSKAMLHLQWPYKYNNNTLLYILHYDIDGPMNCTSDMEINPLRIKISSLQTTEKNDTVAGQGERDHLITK
T2 sequence (P06756 891-1048 partner limits assumed): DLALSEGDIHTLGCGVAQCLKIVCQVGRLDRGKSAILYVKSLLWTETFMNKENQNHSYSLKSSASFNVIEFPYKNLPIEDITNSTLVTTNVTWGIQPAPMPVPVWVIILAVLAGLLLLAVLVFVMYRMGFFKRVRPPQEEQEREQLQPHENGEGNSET
T2 sequence (P05106 27-788): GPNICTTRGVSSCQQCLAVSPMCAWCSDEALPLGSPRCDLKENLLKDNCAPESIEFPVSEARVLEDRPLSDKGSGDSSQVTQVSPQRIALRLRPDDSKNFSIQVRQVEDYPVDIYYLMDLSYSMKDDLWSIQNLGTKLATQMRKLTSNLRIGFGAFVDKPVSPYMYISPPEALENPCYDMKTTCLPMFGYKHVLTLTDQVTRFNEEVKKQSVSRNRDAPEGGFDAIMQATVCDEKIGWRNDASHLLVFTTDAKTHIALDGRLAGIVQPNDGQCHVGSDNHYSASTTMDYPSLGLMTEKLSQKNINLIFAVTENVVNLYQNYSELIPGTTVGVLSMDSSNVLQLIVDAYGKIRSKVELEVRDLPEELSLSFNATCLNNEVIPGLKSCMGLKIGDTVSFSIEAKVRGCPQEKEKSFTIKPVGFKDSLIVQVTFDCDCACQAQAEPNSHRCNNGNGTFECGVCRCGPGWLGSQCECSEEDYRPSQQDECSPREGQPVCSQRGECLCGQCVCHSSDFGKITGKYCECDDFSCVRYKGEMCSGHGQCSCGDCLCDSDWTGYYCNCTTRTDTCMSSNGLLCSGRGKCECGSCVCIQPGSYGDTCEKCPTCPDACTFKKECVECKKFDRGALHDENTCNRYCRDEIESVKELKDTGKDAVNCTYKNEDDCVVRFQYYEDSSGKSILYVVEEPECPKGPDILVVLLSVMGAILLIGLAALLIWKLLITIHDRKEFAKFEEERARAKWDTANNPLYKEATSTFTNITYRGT
Protocol: as §1

α1β1 = target: T3, α1β1 (Homo sapiens, UniProt P05556+P56199); test: as above
T3 construct: purchased Chemicon International Inc., Temecula, Calif
T3 sequence (P56199 29-1179): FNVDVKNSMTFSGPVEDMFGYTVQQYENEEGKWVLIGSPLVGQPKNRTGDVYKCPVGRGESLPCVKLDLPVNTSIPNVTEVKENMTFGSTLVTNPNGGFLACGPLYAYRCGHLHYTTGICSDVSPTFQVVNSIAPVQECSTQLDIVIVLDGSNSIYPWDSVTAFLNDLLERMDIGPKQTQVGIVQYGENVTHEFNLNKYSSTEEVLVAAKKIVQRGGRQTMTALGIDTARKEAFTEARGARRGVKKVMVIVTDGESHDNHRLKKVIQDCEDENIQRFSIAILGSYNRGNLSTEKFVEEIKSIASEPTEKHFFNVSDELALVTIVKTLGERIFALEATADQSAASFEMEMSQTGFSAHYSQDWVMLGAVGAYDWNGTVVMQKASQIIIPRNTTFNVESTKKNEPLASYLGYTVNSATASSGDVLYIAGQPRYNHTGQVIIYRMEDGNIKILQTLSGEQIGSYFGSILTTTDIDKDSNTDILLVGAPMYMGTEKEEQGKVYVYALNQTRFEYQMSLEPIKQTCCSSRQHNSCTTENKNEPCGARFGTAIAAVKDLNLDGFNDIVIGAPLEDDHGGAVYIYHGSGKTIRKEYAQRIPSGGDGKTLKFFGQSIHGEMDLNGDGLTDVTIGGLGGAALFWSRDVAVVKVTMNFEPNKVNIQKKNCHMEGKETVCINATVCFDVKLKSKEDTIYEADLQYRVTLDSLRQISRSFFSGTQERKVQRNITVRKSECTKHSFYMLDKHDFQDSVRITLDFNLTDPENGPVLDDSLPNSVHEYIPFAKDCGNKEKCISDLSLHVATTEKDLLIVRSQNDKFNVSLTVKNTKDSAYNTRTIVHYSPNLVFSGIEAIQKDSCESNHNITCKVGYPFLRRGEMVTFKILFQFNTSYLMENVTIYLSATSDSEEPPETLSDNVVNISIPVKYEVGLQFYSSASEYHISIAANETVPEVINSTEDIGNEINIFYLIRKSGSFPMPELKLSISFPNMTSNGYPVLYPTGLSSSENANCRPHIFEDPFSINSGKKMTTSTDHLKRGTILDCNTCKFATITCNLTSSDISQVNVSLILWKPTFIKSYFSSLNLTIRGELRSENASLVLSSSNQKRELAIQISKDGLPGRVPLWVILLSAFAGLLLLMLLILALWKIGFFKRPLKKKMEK
T3 sequence (P05556 21-798): as the sequence (P05556 21-798) above
Protocol: as §1

HT1080 = test: Cell adhesion assay on coated wells, HT1080 cells; assay type: cell-based
T47D = test: Cell adhesion assay on coated wells, T47D cells; assay type: cell-based
HeLa = test: Cell adhesion assay on coated wells, HeLa cells; assay type: cell-based

AVNECDIT [pep330]
effect of peptide on adherent cells on plates containing ADAM 23 [1]: significant loss of adherent cells

fibronectin [reference compound]
cell adhesion to wells coated with the protein [2]: promoted cell adhesion

albumin: albumin used as control coating of wells [reference compound]
cell adhesion to wells coated with the protein [2]: did not support any significant cell adhesion

GST: glutathione S-transferase, control protein for the fusion protein [reference compound]
angiogenic response (cells in MATRIGEL plug sections) (endothelial cells; subcutaneous plug, harvested day 7): a significant number of cells was not observed | cell adhesion to wells coated with the protein [2]: did not support any significant cell adhesion

DCVTNIAE [pep331, reference compound]
effect of peptide on adherent cells on plates containing ADAM 23 [1]: this effect was not observed

B1: ADAM 23-GST: recombinant ADAM 23 disintegrin domain expressed as a GST fusion protein in E. coli, about 40 kDa (protein)
chain: KLFEPTECGNGYVEAGEECDCGFHVECYGLCCKKCSLSNGAHCSDGPCCNNTSCLFQPRGYECRDAVNECDITEYCTGDSGQCPPNLHKQD
modifications: left off: a dimerising Fc or GST
notes: recombinant ADAM 23 disintegrin domain expressed as a GST fusion protein in E. coli, about 40 kDa
dose dependence of angiogenic response (endothelial cells; 4, 20.5 or 61.5 μg/plug, day 7): dose-dependent | cell types in plug sections (microscopic histologic analyses) (endothelial cells; day 7, hematoxylin-eosin): both endothelial and smooth muscle cells were present | interaction with purified integrin (α5β1): did not reveal any evidence of interaction | bound αvβ3 integrin (αv and β3 bands) on protein-containing beads (αvβ3 integrin): detected | interaction with purified integrin (α1β1): did not reveal any evidence of interaction | ADAM 23-mediated adhesion (HT1080): no significant ADAM 23-mediated adhesion | ADAM 23-mediated adhesion (T47D): no significant ADAM 23-mediated adhesion | ADAM 23-mediated adhesion (HeLa): no significant ADAM 23-mediated adhesion | dose dependence of ADAM 23-promoted cell adhesiveness [2]: dose-dependent | attachment of cells in the presence of divalent cations ([2]; Mn2+ and Mg2+): stimulated | cell adhesion to wells coated with the protein [2]: promoted cell adhesion
